The record followed here is PMC11160731.

The target of data set [1] is VapB46;VapC46 (Mycobacterium tuberculosis …, UniProt P9WF13;O50411 1-102;1-130, |). Nature of the data set: EMSA. For orientation: In EMSA bound probe runs differently from free probe, usually more slowly.
For data set [2], the target named is VapB27;VapC27 (Mycobacterium tuberculosis …, UniProt O07779;P9WF83 1-78;1-137, |). The experiment in a line: EMSA.
Chain of VapB27;VapC27 (O07779 whole entry, chain 1 of 2): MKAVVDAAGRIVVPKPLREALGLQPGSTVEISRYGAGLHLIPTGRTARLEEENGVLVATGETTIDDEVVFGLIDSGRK
Chain of VapB27;VapC27 (P9WF83 whole entry, chain 2 of 2): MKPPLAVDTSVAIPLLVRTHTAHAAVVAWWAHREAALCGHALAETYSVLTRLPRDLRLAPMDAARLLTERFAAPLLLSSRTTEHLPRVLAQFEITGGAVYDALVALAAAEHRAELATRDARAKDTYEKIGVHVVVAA

Chain of VapB46;VapC46 (P9WF13 whole entry, chain 1 of 2): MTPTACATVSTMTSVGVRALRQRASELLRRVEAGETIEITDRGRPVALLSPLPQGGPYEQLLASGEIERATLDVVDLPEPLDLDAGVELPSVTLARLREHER
Chain of VapB46;VapC46 (O50411 whole entry, chain 2 of 2): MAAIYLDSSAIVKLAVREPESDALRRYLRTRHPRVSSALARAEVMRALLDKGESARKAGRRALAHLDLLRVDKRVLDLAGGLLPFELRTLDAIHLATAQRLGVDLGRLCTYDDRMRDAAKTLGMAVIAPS

B1: vapB46 promoter oligo (dsDNA)
DNA 1: TCCTCCCAGCTCAGCGCCAACCAACCGAGGAACAACGCGCCGACTTTTTCAG
DNA 2: CTGAAAAAGTCGGCGCGTTGTTCCTCGGTTGGTTGGCGCTGAGCTGGGAGGA
On to B1, for which, in data set [1], the binding result is listed as “binds”.

B2: vapB27 promoter oligo (dsDNA)
DNA 1: CGGTGAGTCGACTTCCGCACCTGAGTGGGAAGCCATTGGTATCGTATTCCCATGA
DNA 2: TCATGGGAATACGATACCAATGGCTTCCCACTCAGGTGCGGAAGTCGACTCACCG
Turning to B2, the binding result in data set [2] is recorded as “binds”.
